Here are results for 1 molecule from article PMC7057995, “Structural basis of RNA polymerase I pre-initiation complex formation and promoter melting”.

The data set has as its target Core factor (CF) wild type: Rrn6/Rrn7/Rrn11 (Saccharomyces cerevisiae, UniProt P32786;P40992;Q04712 1-894;1-514;1-507). The experiment in a line: EMSA; 0.2 pmol DNA; 0.25, 0.5, 1 pmol CF; EMSA: 20 mM HEPES/KOH pH 7.8, 10% glycerol, 200 mM KCl, 1 mM MgCl2, 0.1 mg/ml BSA, 1 mM DTT, 30 min, temperature not stated; 6% native gel, 0.5x TBE. The note with it: protein: recombinant; tags: His (Ni-NTA purified); copies: 1;1;1; label: NTS -3 Atto647N; TS -5 Cy3; blunt. A general note: Mobility shift assays separate free from complexed probe on a gel.

Core factor (CF) wild type: Rrn6/Rrn7/Rrn11, sequence (P32786 whole entry, chain 1 of 3): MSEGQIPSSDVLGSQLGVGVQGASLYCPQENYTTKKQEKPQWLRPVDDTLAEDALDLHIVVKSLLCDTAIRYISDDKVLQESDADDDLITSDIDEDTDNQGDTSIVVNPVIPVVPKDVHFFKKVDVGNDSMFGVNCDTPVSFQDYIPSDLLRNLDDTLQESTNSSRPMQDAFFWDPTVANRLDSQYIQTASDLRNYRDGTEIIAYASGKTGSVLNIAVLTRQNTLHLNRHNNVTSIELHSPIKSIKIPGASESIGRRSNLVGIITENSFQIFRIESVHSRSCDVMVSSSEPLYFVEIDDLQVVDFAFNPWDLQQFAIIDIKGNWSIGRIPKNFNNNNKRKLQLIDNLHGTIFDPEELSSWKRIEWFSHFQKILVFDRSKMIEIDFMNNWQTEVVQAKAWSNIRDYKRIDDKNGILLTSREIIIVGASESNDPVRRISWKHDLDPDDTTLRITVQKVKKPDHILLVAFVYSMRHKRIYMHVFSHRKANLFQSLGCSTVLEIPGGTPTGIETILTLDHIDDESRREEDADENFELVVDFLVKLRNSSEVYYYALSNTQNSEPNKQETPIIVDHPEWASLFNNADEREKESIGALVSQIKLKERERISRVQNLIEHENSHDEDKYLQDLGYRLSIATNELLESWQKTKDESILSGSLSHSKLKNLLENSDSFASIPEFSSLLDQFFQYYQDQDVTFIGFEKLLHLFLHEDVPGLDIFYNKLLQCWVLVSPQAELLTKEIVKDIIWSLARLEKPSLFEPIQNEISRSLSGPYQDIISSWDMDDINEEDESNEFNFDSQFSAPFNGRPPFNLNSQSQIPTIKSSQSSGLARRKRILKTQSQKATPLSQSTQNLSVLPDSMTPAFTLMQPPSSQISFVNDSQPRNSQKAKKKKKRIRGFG
Core factor (CF) wild type: Rrn6/Rrn7/Rrn11, sequence (P40992 whole entry, chain 2 of 3): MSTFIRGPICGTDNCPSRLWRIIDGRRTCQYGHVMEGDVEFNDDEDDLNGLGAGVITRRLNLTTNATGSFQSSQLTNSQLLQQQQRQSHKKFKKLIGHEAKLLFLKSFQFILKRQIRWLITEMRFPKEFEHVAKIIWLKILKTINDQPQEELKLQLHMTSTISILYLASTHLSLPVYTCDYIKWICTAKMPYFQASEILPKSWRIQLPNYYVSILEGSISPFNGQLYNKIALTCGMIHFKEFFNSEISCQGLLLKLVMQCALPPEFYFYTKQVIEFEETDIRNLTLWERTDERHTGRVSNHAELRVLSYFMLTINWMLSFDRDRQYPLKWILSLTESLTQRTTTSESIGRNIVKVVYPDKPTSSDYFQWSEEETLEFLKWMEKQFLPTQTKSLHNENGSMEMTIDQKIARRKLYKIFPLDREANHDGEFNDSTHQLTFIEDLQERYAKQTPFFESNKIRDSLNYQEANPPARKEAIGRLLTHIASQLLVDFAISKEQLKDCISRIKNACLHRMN
Core factor (CF) wild type: Rrn6/Rrn7/Rrn11, sequence (Q04712 whole entry, chain 3 of 3): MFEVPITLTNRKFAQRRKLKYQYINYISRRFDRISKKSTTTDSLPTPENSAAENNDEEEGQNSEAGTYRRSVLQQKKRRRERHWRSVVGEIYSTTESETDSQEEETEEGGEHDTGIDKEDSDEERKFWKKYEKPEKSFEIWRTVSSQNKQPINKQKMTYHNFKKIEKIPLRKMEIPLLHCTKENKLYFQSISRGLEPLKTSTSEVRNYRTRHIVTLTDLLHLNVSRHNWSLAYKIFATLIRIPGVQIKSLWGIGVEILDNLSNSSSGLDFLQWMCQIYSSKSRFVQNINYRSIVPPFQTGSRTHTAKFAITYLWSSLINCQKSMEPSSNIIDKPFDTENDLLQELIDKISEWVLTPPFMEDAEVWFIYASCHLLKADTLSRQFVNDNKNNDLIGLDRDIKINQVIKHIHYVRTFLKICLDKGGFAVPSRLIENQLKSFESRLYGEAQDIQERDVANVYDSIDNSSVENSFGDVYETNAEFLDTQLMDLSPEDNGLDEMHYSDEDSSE

B1: rDNA promoter -83 to +26 (EMSA; ID 4691/4692) (dsDNA)
DNA 1: AAAAGTAAGATTTTAGTTTGTAATGGGAGGGGGAATTTAGTCATGGAGTACAAGTGTGAGGAAAAGTAGTTGGGAGGTACTTCATACCAAAGGGGTTCAACACAAGGGT
DNA 2: ACCCTTGTGTTGAACCCCTTTGGTATGAAGTACCTCCCAACTACTTTTCCTCACACTTGTACTCCATGACTAAATTCCCCCTCCCATTACAAACTAAAATCTTACTTTT
For B1, the binding result was “binds”.
